Paper PMC11065875

Test system: H-24 (His-ELP) (synthetic; E. coli BL21 expressed)
Test: coacervate partitioning, fluorimetry
Details: EMSA in 2.5% agarose, 30 min incubation, 0.5 uM ssDNA1, fusions in 1x PBS (or 50% artificial fluids) at RT, His-ELPs at RT in 37 mM citric acid/126 mM Na2HPO4 …; for binding signal (% in coacervate): 60 C (LLPS 1)

Sequence “GGGTTCCTTGCTAGCCAGAGAGCTCCCGGGCTCGACCTGGTCTAACAAGAGAGACC [ATTO488-ssDNA1]” has a binding signal (% in coacervate) (pH 6.5, artificial nasal swab fluid) of 80, a binding signal (% in coacervate) (pH 6.5, artificial saliva) of 70 and a binding signal (% in coacervate) (pH 6.5, buffer) of 60. For the same sequence, the binding signal (% in protein-poor supernatant) (pH 8, 300 mM NaCl, 30 C (LLPS 2)) was greater than 90.
